Test results: patent US20140271457A1 (AbbVie / Abbott, published 2014)
Changes are numbered by the printed parent chain.

B1: AB397 (antibody, V domains shown)
VH: EVTLRESGPGLVKPTQTLTLTCTLYGFSLSTSDMGVDWIRQPPGKGLEWLAHIWWDDVKRYNPALKSRLTISKDTSKNQVVLKLTSVDPVDTATYYCARTVSSGYIYYAMDYWGQGTLVTVSS
VL: DIQMTQSPSSLSASVGDRVTISCRASQDIRNYLNWYQQKPGKAPKLLIFYTSKLHSGVPSRFSGSGSGTDYTLTISSLQPEDIATYYCQQGLTPPLTFGGGTKVEIKR
B2: DVD2691 (bispecific antibody, human IgG1, kappa)
heavy: not shown
light: DIQMTQSPSSLSASVGDRVTISCRASQDIRNYLNWYQQKPGKAPKLLIFYTSKLHSGVPSRFSGSGSGTDYTLTISSLQPEDIATYYCQQGLTPPLTFGGGTKVEIKRTVAAPSVFIFPPDIQMTQSPSSLSASVGDRVTITCRASQLVSSAVAWYQQKPGKAPKLLIYWASARHTGVPSRFSGSGSGTDFTLTISSLQPEDFATYYCQQHYKTPFTFGQGTKLEIKRTVAAPSVFIFPPSDEQLKSGTASVVCLLNNFYPREAKVQWKVDNALQSGNSQESVTEQDSKDSTYSLSSTLTLSKADYEKHKVYACEVTHQGLSSPVTKSFNRGEC
B3: DVD3113 (bispecific antibody, IgG1)
VH: EVQLVQSGAEVKKPGASVKVSCKASGYTFNNYGIIWVRQAPGQGLEWMGWINTYTGKPTYAQKFQGRVTMTTDTSTSTAYMELSSLRSEDTAVYYCARKLFNTVAVTDNAMDYWGQGTTVTVSSGGGGSGGGGSEVQLVQSGAEVKKPGASVKVSCKASGYTFTTYGVSWVRQAPGQGLEWMGEIYPGNYNTYYNEKFRGRVTMTTDTSTSTAYMELRSLRSDDTAVYYCARWRTSYFSDYGYFDYWGQGTTVTVSS
VL: DIQMTQSPSSLSASVGDRVTITCRASQDIENYLNWYQQKPGKAPKLLIYYTSRLQSGVPSRFSGSGSGTDFTLTISSLQPEDFATYFCQQGNTQPPTFGQGTKLEIKRGGSGGGGSGDVVMTQSPLSLPVTLGQPASISCRSSQSLVHSHGNTYLHWYQQRPGQSPRLLIYTVSNRFSGVPDRFSGSGSGTDFTLKISRVEAEDVGVYYCSQSTHVPYTFGGGTKVEIKR
notes: DVD-Ig; wt hIgG1 + kappa constants
B4: DVD3114 (bispecific antibody, IgG1)
VH: EVQLVQSGAEVKKPGASVKVSCKASGYTFNNYGIIWVRQAPGQGLEWMGWINTYTGKPTYAQKFQGRVTMTTDTSTSTAYMELSSLRSEDTAVYYCARKLFNTVAVTDNAMDYWGQGTTVTVSSASTKGPEVQLVQSGAEVKKPGASVKVSCKASGYTFTTYGVSWVRQAPGQGLEWMGEIYPGNYNTYYNEKFRGRVTMTTDTSTSTAYMELRSLRSDDTAVYYCARWRTSYFSDYGYFDYWGQGTTVTVSS
VL: DIQMTQSPSSLSASVGDRVTITCRASQDIENYLNWYQQKPGKAPKLLIYYTSRLQSGVPSRFSGSGSGTDFTLTISSLQPEDFATYFCQQGNTQPPTFGQGTKLEIKRTVAAPDVVMTQSPLSLPVTLGQPASISCRSSQSLVHSHGNTYLHWYQQRPGQSPRLLIYTVSNRFSGVPDRFSGSGSGTDFTLKISRVEAEDVGVYYCSQSTHVPYTFGGGTKVEIKR
notes: as for B3
B5: DVD3143 (bispecific antibody, IgG1)
VH: EVQLVESGGGLVQPGGSLRLSCAASGFTFSNYGVTWVRQAPGKGLEWVSMIWADGSTHYASSVKGRFTISRDNSKNTLYLQMNSLRAEDTAVYYCAREWQHGPVAYWGQGTLVTVSSGGGGSGGGGSEVQLVQSGAEVKKPGASVKVSCKASGYTFTSYWMHWVRQAPGQGLEWIGNINPKGGSNIYNEKFQGRVTMTRDTSISTAYMELSRLRSDDTAVYYCARLDYFGDSFDLWGQGTTVTVSS
VL: DIQMTQSPSSLSASVGDRVTITCRASQLVSSAVAWYQQKPGKAPKLLIYWASARHTGVPSRFSGSGSGTDFTLTISSLQPEDFATYYCQQHYKTPFTFGQGTKLEIKRGGSGGGGSGDIQMTQSPSSLSASVGDRVTITCRASQGIRNYLNWYQQKPGKAPKLLIYYASNLEVGVPSRFSGSGSGTDYTLTISSLQPEDFATYYCQQDNRFPYTFGGGTKVEIKR
notes: as for B3
B6: DVD3153 (bispecific antibody, IgG1)
VH: B5 VH with T35E, M50G, S61D, S62T, G65S
VL: B5 VL with R24K, A53T, R54L, K93R
notes: as for B3
B7: DVD3144 (bispecific antibody, IgG1)
VH: EVQLVESGGGLVQPGGSLRLSCAASGFTFSNYGVTWVRQAPGKGLEWVSMIWADGSTHYASSVKGRFTISRDNSKNTLYLQMNSLRAEDTAVYYCAREWQHGPVAYWGQGTLVTVSSASTKGPEVQLVQSGAEVKKPGASVKVSCKASGYTFTSYWMHWVRQAPGQGLEWIGNINPKGGSNIYNEKFQGRVTMTRDTSISTAYMELSRLRSDDTAVYYCARLDYFGDSFDLWGQGTTVTVSS
VL: DIQMTQSPSSLSASVGDRVTITCRASQLVSSAVAWYQQKPGKAPKLLIYWASARHTGVPSRFSGSGSGTDFTLTISSLQPEDFATYYCQQHYKTPFTFGQGTKLEIKRTVAAPDIQMTQSPSSLSASVGDRVTITCRASQGIRNYLNWYQQKPGKAPKLLIYYASNLEVGVPSRFSGSGSGTDYTLTISSLQPEDFATYYCQQDNRFPYTFGGGTKVEIKR
notes: as for B3
B8: DVD3154 (bispecific antibody, IgG1)
VH: B7 VH with T35E, M50G, S61D, S62T, G65S
VL: B7 VL with R24K, A53T, R54L, K93R
notes: as for B3
B9: DVD3146 (bispecific antibody, IgG1)
VH: B7 VH
VL: DIQMTQSPSSLSASVGDRVTITCRASQLVSSAVAWYQQKPGKAPKLLIYWASARHTGVPSRFSGSGSGTDFTLTISSLQPEDFATYYCQQHYKTPFTFGQGTKLEIKRTVAAPSVFIFPPDIQMTQSPSSLSASVGDRVTITCRASQGIRNYLNWYQQKPGKAPKLLIYYASNLEVGVPSRFSGSGSGTDYTLTISSLQPEDFATYYCQQDNRFPYTFGGGTKVEIKR
notes: as for B3
B10: DVD3156 (bispecific antibody, IgG1)
VH: B7 VH with T35E, M50G, S61D, S62T, G65S
VL: B9 VL with R24K, A53T, R54L, K93R
notes: as for B3
B11: DVD3147 (bispecific antibody, IgG1)
VH: EVQLVESGGGLVQPGGSLRLSCAASGFTFSNYGVTWVRQAPGKGLEWVSMIWADGSTHYASSVKGRFTISRDNSKNTLYLQMNSLRAEDTAVYYCAREWQHGPVAYWGQGTLVTVSSASTKGPSVFPLAPEVQLVQSGAEVKKPGASVKVSCKASGYTFTSYWMHWVRQAPGQGLEWIGNINPKGGSNIYNEKFQGRVTMTRDTSISTAYMELSRLRSDDTAVYYCARLDYFGDSFDLWGQGTTVTVSS
VL: B7 VL
notes: as for B3
B12: DVD3157 (bispecific antibody, IgG1)
VH: B11 VH with T35E, M50G, S61D, S62T, G65S
VL: B7 VL with R24K, A53T, R54L, K93R
notes: as for B3
B13: DVD3158 (bispecific antibody, IgG1)
VH: EVQLVQSGAEVKKPGASVKVSCKASGYTFTSYWMHWVRQAPGQGLEWIGNINPKGGSNIYNEKFQGRVTMTRDTSISTAYMELSRLRSDDTAVYYCARLDYFGDSFDLWGQGTTVTVSSGGGGSGGGGSEVQLVESGGGLVQPGGSLRLSCAASGFTFSNYGVEWVRQAPGKGLEWVSGIWADGSTHYADTVKSRFTISRDNSKNTLYLQMNSLRAEDTAVYYCAREWQHGPVAYWGQGTLVTVSS
VL: DIQMTQSPSSLSASVGDRVTITCRASQGIRNYLNWYQQKPGKAPKLLIYYASNLEVGVPSRFSGSGSGTDYTLTISSLQPEDFATYYCQQDNRFPYTFGGGTKVEIKRGGSGGGGSGDIQMTQSPSSLSASVGDRVTITCKASQLVSSAVAWYQQKPGKAPKLLIYWASTLHTGVPSRFSGSGSGTDFTLTISSLQPEDFATYYCQQHYRTPFTFGQGTKLEIKR
notes: as for B3
B14: DVD3159 (bispecific antibody, IgG1)
VH: EVQLVQSGAEVKKPGASVKVSCKASGYTFTSYWMHWVRQAPGQGLEWIGNINPKGGSNIYNEKFQGRVTMTRDTSISTAYMELSRLRSDDTAVYYCARLDYFGDSFDLWGQGTTVTVSSASTKGPEVQLVESGGGLVQPGGSLRLSCAASGFTFSNYGVEWVRQAPGKGLEWVSGIWADGSTHYADTVKSRFTISRDNSKNTLYLQMNSLRAEDTAVYYCAREWQHGPVAYWGQGTLVTVSS
VL: DIQMTQSPSSLSASVGDRVTITCRASQGIRNYLNWYQQKPGKAPKLLIYYASNLEVGVPSRFSGSGSGTDYTLTISSLQPEDFATYYCQQDNRFPYTFGGGTKVEIKRTVAAPDIQMTQSPSSLSASVGDRVTITCKASQLVSSAVAWYQQKPGKAPKLLIYWASTLHTGVPSRFSGSGSGTDFTLTISSLQPEDFATYYCQQHYRTPFTFGQGTKLEIKR
notes: as for B3

How the values were obtained:
Recombinant Human IL-13 [1] = molecular target: Recombinant Human IL-13 (human, UniProt P35225 35-146, limits assumed); test: cell-based or functional assay
Target sequence in this assay (P35225 35-146 limits assumed): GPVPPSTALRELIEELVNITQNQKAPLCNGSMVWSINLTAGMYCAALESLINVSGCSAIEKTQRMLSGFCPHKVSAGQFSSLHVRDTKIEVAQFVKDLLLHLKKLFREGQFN

Recombinant Human IL-13 [2] = molecular target: Recombinant Human IL-13 (human, UniProt P35225 35-146, limits assumed); test: Biacore SPR
Method: The BIACORE assay (GE, Healthcare Piscataway, N.J.) determined the affinity of antibodies or DVD-Ig with kinetic measurements of on-rate and off-rate constants. Binding of antibodies or DVD-Ig proteins to a target antigen (for example, a purified recombinant target antigen) was determined by surface plasmon resonance-based measurements with a Biacore T200 using running HBS-EP+buffer from GE Healthcare at 25° C. All chemicals were obtained from GE Healthcare or otherwise from a different source as described in the text. For example, approximately 5000 RU of goat anti-mouse IgG, (Fcγ), fragment specific polyclonal antibody (Pierce Biotechnology Inc, Rockford, Ill.) diluted in 10 mM sodium acetate (pH 4.5) was directly immobilized across a CM5 research grade biosensor chip using a standard amine coupling kit according to manufacturer's instructions. Unreacted moieties on the biosensor surface were blocked with ethanolamine. Modified carboxymethyl dextran surface in flowcell 1 was used as a reference surface. Rate constants were derived by making kinetic binding measurements at different antigen concentrations ranging from 0.8-100 nM. Binding was recorded as a function of time and kinetic rate constants were calculated. In this assay, association rate was evaluated for 5 min and dissociation was monitored for 10 min. For kinetic screening analysis, rate equations derived from the 1:1 binding model were fitted simultaneously to association and dissociation phases of all injections (using global fit analysis with Rmax fit locally to account for capture variations) with the use of Biaevaluation software. Purified antibodies or DVD-Ig proteins were diluted in HEPES-buffered saline for capture across goat anti-mouse IgG specific reaction surfaces. Antibodies or DVD-Ig proteins to be captured as a ligand were injected over reaction matrices at a flow rate of 5 μl/minute. The association and dissociation rate constants, kₒₙ (M⁻¹ s⁻¹) and koff (s⁻¹) were determined under a continuous flow rate of 50 μl/minute. Rate constants were derived by making kinetic binding measurements at different antigen concentrations ranging from 0.8-100 nM. Binding was recorded as a function of time and kinetic rate constants were calculated. In this assay, association rate was evaluated for 5 min and dissociation was monitored for 10 min.
Target sequence in this assay (P35225 35-146 limits assumed): as above

Binder	IL-13 Neutralization Assay IC50 (Recombinant Human IL-13 [1]) [nM]	Kd (Recombinant Human IL-13 [2]) [nM]	koff (Recombinant Human IL-13 [2]) [s⁻¹]	kon (Recombinant Human IL-13 [2]) [M⁻¹ s⁻¹]
B1	0.066	–	–	–
B2	0.105	–	–	–
B3	–	0.015	1.2e-06	75000
B4	–	0.0069	1.2e-06	170000
B5	–	0.37	6.2e-05	170000
B6	–	0.45	8.2e-05	180000
B7	–	0.12	7.3e-06	62000
B8	–	0.58	3e-05	53000
B9	–	0.24	4.6e-05	190000
B10	–	0.34	5.4e-05	160000
B11	–	< 0.0077	< 1e-06	130000
B12	–	0.0095	1.1e-06	110000
B13	–	0.057	6.7e-05	1.2e+06
B14	–	0.039	5.4e-05	1.4e+06
